One substance from patent US20260274958A1 can be followed below.

For this assay, the target named is VEGF-Fc (in house made by ImmuneOnco).
Chain of VEGF-Fc (in house made by ImmuneOnco) (chain, as listed by the source limits assumed): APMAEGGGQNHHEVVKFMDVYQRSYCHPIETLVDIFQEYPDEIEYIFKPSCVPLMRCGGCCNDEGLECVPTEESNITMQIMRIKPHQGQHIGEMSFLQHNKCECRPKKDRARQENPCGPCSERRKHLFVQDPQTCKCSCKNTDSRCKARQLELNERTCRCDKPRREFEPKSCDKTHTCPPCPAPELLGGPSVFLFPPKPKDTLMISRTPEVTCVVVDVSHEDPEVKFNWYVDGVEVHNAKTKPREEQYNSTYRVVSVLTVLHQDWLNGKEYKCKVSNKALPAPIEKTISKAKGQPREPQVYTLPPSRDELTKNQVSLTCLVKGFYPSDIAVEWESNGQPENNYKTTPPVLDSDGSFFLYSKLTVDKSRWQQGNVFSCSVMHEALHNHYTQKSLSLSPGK

VEGFR1D2-Fc (Fc fusion) came in with an IC50 of inhibition of VEGF-Fc induced CD69 expression (MFI) on Jurkat-CVR cells of 2.38 nM.
